Four molecules from patent publication US20220363752A1 (VERSEAU THERAPEUTICS, published 2022) can be followed below.

Assay [1] addresses T1, LRRC25(21-40) biotin peptide (human, not fully specified; N-terminal NH2; C-terminal GGK-Biotin; native Cys changed to Ser).
T1 peptide: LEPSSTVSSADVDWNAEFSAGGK
Nature of the assay: peptide ELISA. In outline: (§1)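 Plate-bound streptavidin captured biotinylated 16- to 20-mer LRRC25 ECD overlapping peptides (2 ug/mL), with biotinylated human LRRC25-His as positive control. Chimeric anti-LRRC25 antibodies at 20 nM, 45 min at 37° C in duplicate; detection by HRP anti-human IgG and TMB at A450 nm.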

Assay [2] deals with T2, LRRC25(36-55) biotin peptide (human, not fully specified; N-terminal NH2; C-terminal GGK-Biotin; native Cys changed to Ser).
T2 peptide: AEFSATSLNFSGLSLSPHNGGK
As to the kind of experiment: peptide ELISA. Put shortly: as §1

Assay [3] concerns the target T3, LRRC25(51-69) biotin peptide (human, not fully specified; N-terminal acetyl; C-terminal GGK-Biotin).
T3 peptide: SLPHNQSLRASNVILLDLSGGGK
As to the kind of experiment: peptide ELISA. Put shortly:
as §1
Background: ELISA stands for enzyme-linked immunosorbent assay.

In assay [4] the target is T4, LRRC25(66-85) biotin peptide (human, not fully specified; N-terminal acetyl; C-terminal GGK-Biotin).
T4 peptide: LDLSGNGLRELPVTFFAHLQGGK
As to the kind of experiment: peptide ELISA. In outline:
as §1

Assay [5] deals with T5, LRRC25(81-100) biotin peptide (human, not fully specified; N-terminal acetyl; C-terminal GGK-Biotin).
T5 peptide: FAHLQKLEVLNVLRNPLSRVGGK
Nature of the assay: peptide ELISA. In outline:
as §1

Assay [6] has as its target T6, LRRC25(96-115) biotin peptide (human, not fully specified; N-terminal acetyl; C-terminal GGK-Biotin; native Cys changed to Ser).
T6 construct: also called Biotin LRRC25 (96-115) peptide
T6 peptide: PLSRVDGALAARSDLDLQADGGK
As to the kind of experiment: peptide ELISA. Put shortly: as §1

For assay [7], the target named is T7, LRRC25(111-130) biotin peptide (human, not fully specified; N-terminal acetyl; C-terminal GGK-Biotin; native Cys changed to Ser).
T7 peptide: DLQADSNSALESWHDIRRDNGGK
As to the kind of experiment: peptide ELISA. In outline:
as §1

Assay [8] addresses T8, LRRC25(126-145) biotin peptide (human, not fully specified; N-terminal acetyl; C-terminal GGK-Biotin; native Cys changed to Ser).
T8 peptide: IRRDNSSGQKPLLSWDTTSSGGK
As to the kind of experiment: peptide ELISA. In outline: as §1

Assay [9] addresses T9, LRRC25(141-159) biotin peptide (human, not fully specified; N-terminal acetyl; C-terminal GGK-Biotin; native Cys changed to Ser).
T9 peptide: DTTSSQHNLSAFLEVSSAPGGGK
Nature of the assay: peptide ELISA. In outline:
as §1

Assay [10] deals with T10, LRRC25(150-165) biotin peptide (human).
T10 peptide: Ac-SAFLEVSSAPGLASATGG-{Biotin′}
As to the kind of experiment: peptide ELISA. Put shortly:
as §1

The target of assay [11] is T11, His-tagged human LRRC25 extracellular domain protein, human LRRC25-His (human, UniProt Q8N386 21-165).
T11 construct: The entry holds the extracellular domain, a GSG linker and the His tag; also called LRRC25(ECD)-HIS
T11 sequence (Q8N386 other isoform, or with tags, fused parts or gaps): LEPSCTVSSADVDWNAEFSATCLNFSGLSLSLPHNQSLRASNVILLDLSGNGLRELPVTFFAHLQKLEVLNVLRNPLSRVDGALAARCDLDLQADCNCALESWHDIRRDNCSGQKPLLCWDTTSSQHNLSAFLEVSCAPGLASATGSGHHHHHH
Nature of the assay: ELISA, plate-immobilized antigen. Put shortly: (§2)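 Wells coated overnight at 4 °C with 1 ug/mL antigen in PBS pH 7.4. Antibodies titrated from 500 nM in 3-fold steps in 1% skimmed milk/PBS, 1 h at room temperature, then HRP anti-human IgG; TMB read at A450 nm and EC50 taken from binding curves.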

Assay [12] deals with T12, His-tagged cynomolgus monkey LRRC25 extracellular domain protein, cyno LRRC25-His (cynomolgus monkey).
T12 construct: The entry holds the extracellular domain, a GSG linker and the His tag
T12 sequence (chain, as listed by the source limits assumed): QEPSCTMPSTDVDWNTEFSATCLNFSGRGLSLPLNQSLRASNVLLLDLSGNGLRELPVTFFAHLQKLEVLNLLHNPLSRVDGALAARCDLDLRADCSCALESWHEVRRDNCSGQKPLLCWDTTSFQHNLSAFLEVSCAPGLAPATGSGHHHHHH
Nature of the assay: ELISA, plate-immobilized antigen. In outline:
as §2

Assay [13] deals with T13, biotinylated human LRRC25-His protein (human, UniProt Q8N386 21-165, biotinylated (sites not given)).
T13 construct: also called Biotin LRRC25-His; biotinylated LRRC25 protein
T13 sequence (Q8N386 other isoform, or with tags, fused parts or gaps): as the sequence (Q8N386 other isoform, or with tags, fused parts or gaps) above
Nature of the assay: ELISA, 20 nM antibody, biotinylated antigen on streptavidin plate. In outline:
as §1

Assay [14] deals with T6, LRRC25(96-115) biotin peptide. The description is as above. In outline:
as §1

The target in assay [15] is T12, His-tagged cynomolgus monkey LRRC25 …. Nature of the assay: ELISA, antibody titrated on plate-immobilized Cyno LRRC25(ECD)-His, A450nm against -log [IgG] (M), right panel. As for the experimental part:
(§3) To establish the relative binding strengths of anti-LRRC25 antibodies against human LRRC25, and their cross-reactivity with cynomolgus monkey LRRC25, antibody binding curve analyses were performed and EC50 values against plate-immobilized recombinant human and cyno LRRC25 proteins were determined.
(§4) A typical ELISA was performed by coating overnight in PBS, pH 7.4, at 4° C. in high binding microtiter wells with 1 ug/mL/100 ul per well of human LRRC25-His or cyno LRRC25-His. An anti-human LRRC25 antibody (2A3, LS Bio, LS-C174039-100) and anti-HIS-HRP (Miltenyi Biotec; 130-092-783) served as coating controls for the human and cyno LRRC25 proteins, respectively. […] Anti-LRRC25 antibodies were added (100 ul per well) at 500 nM and serially diluted 3-fold in assay buffer (1% skimmed milk in PBS, pH 7.4). The plate was incubated with gentle agitation for 1 h at room temperature. The plate was washed 3× and HRP-conjugated secondary antibody in assay buffer added [100 ul per well; goat anti-human IgG (Jackson Immunoresearch, cat #715-035-150)], and the plate was incubated as before. Antibody bound to plate-immobilized LRRC25(ECD)-HIS was determined at A450 nm using HRP substrate (3,3′,5,5′-tetramethylbenzidine (TMB); eBioscience; 00-4201-56); 100 μl/well).

The target in assay [16] is T11, His-tagged human LRRC25 extracellular …. As to the kind of experiment: ELISA, antibody titrated on plate-immobilized Human LRRC25(ECD)-His, A450nm against -log [IgG] (M), left panel. The protocol: as §3, §4

Primed or numbered codes have the meaning given here. Biotin′ = not defined here

B1: anti-LRRC25 chimeric antibody 2C08 (antibody, human IgG4, V domains shown)
VH: QVTLKESGPGILQPSQTLSLTCSFSGFSLSTSGMGVSWIRQPSGKGLEWLAHIYWDDDKRYNPSLKSRLTLSKDTSSNQVFLKITSVDTADTATYYCARRPRDYYGGGHWYFDVWGAGTTVTVSS
VL: DIVMTQSPKSMSMSVGERVTLTCKASENVGTYVSWYQQKAEQSPKLLIYGASNRYTGVPDRFTGSGSATDFTLTISNVQTEDLADYHCGQSYSYPFTFGSGTKLEIKR
As usually defined, the EC50 is the concentration that produces a half-maximal response. For B1, the binding result in assay [1], in assay [2], in [3], in assay [4], in assay [5] and in [6] was “no binding (tested: 20 nM)” in each case. For the same molecule, the binding result in [7], in assay [8], in assay [9] and in assay [10] was “no binding (tested: 20 nM)” each time. For the same molecule, the concentration for a half-maximal effect (EC50) in assay [11] came to 2 nM; in assay [12] it was 1.4 nM. Further, the “absorbance (A450)” value in assay [13] was 2.39 A450; in [14], 0.049 A450.

B2: anti-LRRC25 chimeric antibody 3A08 (antibody, human IgG4)
heavy: DVKLVESGGGLVKPGGSLKLSCAVSGFTLSSYAMSWVRQTPEKRLEWVASISRGGSTYYPDSVKGRFTISRDNGRNILNLQMSSLRSEDTAIYYCARGGGSTMITSLFAYWGQGTLVTVSAASTKGPSVFPLAPCSRSTSESTAALGCLVKDYFPEPVTVSWNSGALTSGVHTFPAVLQSSGLYSLSSVVTVPSSSLGTKTYTCNVDHKPSNTKVDKRVESKYGPPCPPCPAPEFLGGPSVFLFPPKPKDTLMISRTPEVTCVVVDVSQEDPEVQFNWYVDGVEVHNAKTKPREEQFNSTYRWSVLTVLHQDWLNGKEYKCKVSNKGLPSSIEKTISKAKGQPREPQVYTLPPSQEEMTKNQVSLTCLVKGFYPSDIAVEWESNGQPENNYKTTPPVLDSDGSFFLYSRLTVDKSRWQEGNVFSCSVMHEALHNHYTQKSLSLSLGK
light: DIVMTQAAFSNPVTLGTSASISCRSSKSLLHSNGITYLYWYLQKPGQSPQLLIYQMSNLASGVPDRFSSSGSGTDFTLRISRVEAEDVGVYYCAQNLELPFTFGSGTKLEIKRTVAAPSVFIFPPSDEQLKSGTASVVCLLNNFYPREAKVQWKVDNALQSGNSQESVTEQDSKDSTYSLSSTLTLSKADYEKHKVYACEVTHQGLSSPVTKSFNRGEC
notes: also called mAb 3A08
In the case of B2, the binding result in assay [1], in assay [2], in assay [3], in assay [4], in [5] and in assay [6] was “no binding (tested: 20 nM)” in each case. For the same molecule, the binding result in assay [7] was “no binding (tested: 20 nM)”; in assay [8], “no binding (tested: 20 nM)”; in assay [9], “no binding (tested: 20 nM)”; in assay [10] it was “no binding (tested: 20 nM)”; in assay [15] it was “no binding (tested: about 5e-7 M (-log [IgG] about 6.3))”. In assay [11], this molecule returned a half-maximal effective concentration (EC50) of 51.1 nM. The results for the “absorbance (A450)” value in assay [13] and in assay [14] were 0.305 A450 and 0.088 A450, respectively.

B3: anti-LRRC25 chimeric antibody 1E01 (antibody, human IgG4, V domains shown)
VH: DVQLVESGGGLVKPGGSLKLSCAASGFTFSNYAMSWVRQTPEKRLEWVASISRGGNTYYPDSVKGRFTISRDNARNILYLQMSSLRSEDTAIYYCTRGNYGSSLFAYWGQGTLVTVSA
VL: DIVLTQSPASLTVSLGQRATISCRASKSVSTSGYSYMHWYQQKPGQPPKLLIYLASNLESGVPARFSGSGSRTDFTLTIDPVEADDAATYYCQQNNEDPWTFGGGTKLEIKR
notes: also called mAb 1E01
As usually defined, the EC50 (read off the curve) is the concentration giving half of the maximal effect. B3: the binding result in [1], in assay [2], in assay [3], in assay [4], in assay [5] and in [7] was “no binding (tested: 20 nM)” each time. Further, the binding result in assay [8], in assay [9] and in assay [10] was “no binding (tested: 20 nM)” each time. Further, the values for the 50% effective concentration (EC50) in assay [11] and in assay [12] were 1.3 nM and 83.2 nM, respectively. Also, the “absorbance (A450)” value was 1.7 A450 in assay [13] and 2.56 A450 in assay [14]. In addition, in assay [16], the “EC50 (read off the curve)” value was approximately 1 nM.

B4: anti-LRRC25 chimeric antibody 3C07 (antibody, human IgG4, V domains shown)
VH: EVKLDESGGGLVKPGGSLKLSCAASGFTFSRYAMSWVRQTPEKRLEWVASISRGGSTYYPDSVKGRFTISRDIARDILYLQMSSLRSEDTAMYYCARGNYGSSLFAYWGQGTLVTVSA
VL: DIVMTQAAFSNPVTLGTSASISCRSSKSLLHSNGITYLYWYLQKPGQSPQLLIYQMSNLASGVPDRFSSSGSGTDFTLRISRVEAEDVGVYYCAQNLELPWTFGGGTKLEIKR
Turning to B4, the binding result in assay [1], in assay [2], in [3], in assay [4], in assay [5] and in assay [6] was “no binding (tested: 20 nM)” throughout. Besides, the binding result in assay [7], in [8], in assay [9] and in assay [10] was “no binding (tested: 20 nM)” in each case. Further, the 50% effective concentration (EC50) is 16.1 nM in assay [11] and approximately 200 nM in [12]. Also, the “absorbance (A450)” value in [13] worked out at 0.714 A450; in [14] it was 0.134 A450.
